Test results taken from PMC4027191 (Nucleic Acids Research, 2014).

B1: Recombinant histidine-tagged human TRF2 (natural protein, UniProt Q15554 1-542, looked up)
chain: MAAGAGTAGPASGPGVVRDPAASQPRKRPGREGGEGARRSDTMAGGGGSSDGSGRAAGRRASRSSGRARRGRHEPGLGGPAERGAGEARLEEAVNRWVLKFYFHEALRAFRGSRYGDFRQIRDIMQALLVRPLGKEHTVSRLLRVMQCLSRIEEGENLDCSFDMEAELTPLESAINVLEMIKTEFTLTEAVVESSRKLVKEAAVIICIKNKEFEKASKILKKHMSKDPTTQKLRNDLLNIIREKNLAHPVIQNFSYETFQQKMLRFLESHLDDAEPYLLTMAKKALKSESAASSTGKEDKQPAPGPVEKPPREPARQLRNPPTTIGMMTLKAAFKTLSGAQDSEAAFAKLDQKDLVLPTQALPASPALKNKRPRKDENESSAPADGEGGSELQPKNKRMTISRLVLEEDSQSTEPSAGLNSSQEAASAPPSKPTVLNQPLPGEKNPKVPKGKWNSSNGVEEKETWVEEDELFQVQAAPDEDSTTNITKKQKWTVEESEWVKAGVQKYGEGNWAAISKNYPFVNRTAVMIKDRWRTMKRLGMN
B2: DL1 (telomeric D-loop) (structured_DNA)
DNA 1: CACCATCCAGTTCTCTTTTGAGAACTGGATGGTGTTAGGGTTAGGGTTAGGGTTAGGGTTAACGCTC
DNA 2: TCAAGCTCGGTCTGCAGTCAGGATGATTGTGAGCGTTAACCCTAACCCTAACCCTAACCCTAATCTGCACTCGAGACTCACGTCCTGGTCACG
DNA 3: CGTGACCAGGACGTGAGTCTCGAGTGCAGACCTTTTTTTTTTTTTTTTTTTTTTTTTTTTTTTACAATCATCCTGACTGCAGACCGAGCTTGA
B3: DL4 (telomeric D-loop with two 8-oxoG) (structured_DNA)
DNA 1: B2 DNA 1
DNA 2: B2 DNA 2
DNA 3: B2 DNA 3
modifications: 8-oxo-dG at positions 39 and 57 of strand 1 (written as G)

How the values were obtained:
[1] = molecular target: T1, Recombinant His-tagged RECQL1 (human, UniProt P46063 1-649); test: cell-based or functional assay
T1 sequence (looked up): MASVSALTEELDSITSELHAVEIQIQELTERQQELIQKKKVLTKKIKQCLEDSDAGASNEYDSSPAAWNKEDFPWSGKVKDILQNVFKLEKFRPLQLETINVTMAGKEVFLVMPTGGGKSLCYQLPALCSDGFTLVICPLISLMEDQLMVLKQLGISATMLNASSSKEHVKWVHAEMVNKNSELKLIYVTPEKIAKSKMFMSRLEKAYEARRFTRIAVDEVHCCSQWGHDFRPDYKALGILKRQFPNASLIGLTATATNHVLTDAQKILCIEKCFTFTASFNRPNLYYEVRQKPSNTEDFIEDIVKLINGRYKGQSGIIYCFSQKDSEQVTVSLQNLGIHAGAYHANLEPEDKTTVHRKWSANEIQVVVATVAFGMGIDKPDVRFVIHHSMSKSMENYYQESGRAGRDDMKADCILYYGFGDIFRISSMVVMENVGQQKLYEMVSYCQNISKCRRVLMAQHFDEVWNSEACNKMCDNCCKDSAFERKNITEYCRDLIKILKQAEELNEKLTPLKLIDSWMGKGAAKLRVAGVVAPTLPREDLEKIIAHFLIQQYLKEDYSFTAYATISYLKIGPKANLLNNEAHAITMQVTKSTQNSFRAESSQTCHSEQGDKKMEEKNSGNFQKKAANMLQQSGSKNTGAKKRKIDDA

TRF1 [2] = molecular target: T2, TRF1 (Homo sapiens, UniProt P54274 1-439); test: EMSA; text gives ~50 nM; EMSA buffer, pH and temperature not given in the material
TRF2 [3] = molecular target: T3, TRF2 (Homo sapiens, UniProt Q15554 1-542); test: EMSA; text gives ~100 nM, binds weakly; EMSA buffer, pH and temperature not given in the material
RECQL1 = RECQL1 (Homo sapiens, UniProt P46063 1-649); test: EMSA; EMSA buffer, pH and temperature not given in the material
TRF2 [4] = molecular target: T3, TRF2; test: as above
TRF1 [5] = molecular target: T2, TRF1; test: as above

T2 sequence (P54274 whole entry): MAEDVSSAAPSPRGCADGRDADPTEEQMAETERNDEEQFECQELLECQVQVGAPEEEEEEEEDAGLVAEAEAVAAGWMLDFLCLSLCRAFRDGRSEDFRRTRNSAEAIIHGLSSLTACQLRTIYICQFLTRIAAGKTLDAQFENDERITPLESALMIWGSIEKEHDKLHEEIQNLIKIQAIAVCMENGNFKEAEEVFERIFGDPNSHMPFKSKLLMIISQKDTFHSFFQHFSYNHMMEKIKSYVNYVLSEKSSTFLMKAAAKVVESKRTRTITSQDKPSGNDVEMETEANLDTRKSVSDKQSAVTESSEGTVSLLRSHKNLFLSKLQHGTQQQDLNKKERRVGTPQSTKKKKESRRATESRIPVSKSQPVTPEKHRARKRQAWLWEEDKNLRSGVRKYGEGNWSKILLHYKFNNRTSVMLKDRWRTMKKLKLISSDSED

| Binder | helicase activity of RECQL1 left on the 8-oxoguanine telomeric D-loop DL4 with TRF2 at a molar ratio of 1:4 (RECQL1:TRF2) [1] [%] | Kd (TRF1 [2]) [nM] | Kd (TRF2 [3]) [nM] | Kd (RECQL1) [nM] | Kd (TRF2 [4]) [nM] | Kd (TRF1 [5]) [nM] |
| --- | --- | --- | --- | --- | --- | --- |
| B1 | ~40 |  |  |  |  |  |
| B2 |  | 40 ± 5 | 90 ± 12.5 | 10 ± 2.5 |  |  |
| B3 |  |  |  | 12.5 ± 5 | 125 ± 10 | 50 ± 10 |
